Data published in US20200277383A1 (DRAGONFLY THERAPEUTICS, published 2020).
Values belong to the binder of their own block, whether it stands above or below them.

Target: T1, EpCAM expressed on human cancer cell lines (H747, HCC827, HCT116) (human (human cancer cell lines), UniProt P16422 24-314)
T1 construct: also called Epithelial cell adhesion molecule; cell expressed EPCAM
T1 sequence: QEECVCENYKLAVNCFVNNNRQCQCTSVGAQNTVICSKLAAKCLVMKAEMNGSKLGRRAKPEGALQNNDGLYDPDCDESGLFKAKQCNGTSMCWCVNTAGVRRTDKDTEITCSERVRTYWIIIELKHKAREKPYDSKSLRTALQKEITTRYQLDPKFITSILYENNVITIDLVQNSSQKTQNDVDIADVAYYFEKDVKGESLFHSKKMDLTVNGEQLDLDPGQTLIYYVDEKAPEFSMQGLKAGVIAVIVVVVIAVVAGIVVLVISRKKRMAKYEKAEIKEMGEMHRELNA
Assay: flow cytometry on H747 cells, MFI fold over background
Protocol: Human cancer cell lines expressing EPCAM were used to assess tumor antigen binding of TriNKETs derived from EPCAM targeting clone MT110 in F4 and F3′ formats. The human cell lines H747, HCC827 and HCT116 were used to assess binding of TriNKETs and mAb to cell expressed EPCAM. TriNKETs or mAb were diluted and incubated with the respective cells. Binding was detected using a fluorophore conjugated anti-human IgG secondary antibody. Cells were analyzed by flow cytometry, binding MFI to cell expressed EPCAM was normalized to human recombinant IgG1 stained controls to obtain fold over background values.

binding result: binds
B1: parental monoclonal antibody (mAb) targeting EPCAM (clone MT110) (antibody, V domains shown)
VH: VQLLEQSGAELVRPGTSVKISCKASGYAFTNYWLGWVKQRPGHGLEWIGDIFPGSGNIHYNEKFKGKATLTADKSSSTAYMQLSSLTFEDSAVYFCARLRNWDEPMDYWGQGTTVTVSS
VL: ELVMTQSPSSLTVTAGEKVTMSCKSSQSLLNSGNQKNYLTWYQQKPGQPPKLLIYWASTRESGVPDRFTGSGSGTDFTLTISSVQAEDLAVYYCQNDYSYPLTFGAGTKLEIKG
notes: detected with an anti-human IgG secondary antibody; also called parental mAb; Solitomab (MT110)

binding result: binds
B2: A49-F4-TriNKET-MT110 (other)
heavy 1: EVQLLEQSGAELVRPGTSVKISCKASGYAFTNYWLGWVKQRPGHGLEWIGDIFPGSGNIHYNEKFKGKATLTADKSSSTAYMQLSSLTFEDSAVYFCARLRNWDEPMDYWGQGTTVTVSSASTKGPSVFPLAPSSKSTSGGTAALGCLVKDYFPEPVTVSWNSGALTSGVHTFPAVLQSSGLYSLSSVVTVPSSSLGTQTYICNVNHKPSNTKVDKKVEPKSCDKTHTCPPCPAPELLGGPSVFLFPPKPKDTLMISRTPEVTCVVVDVSHEDPEVKFNWYVDGVEVHNAKTKPREEQYNSTYRVVSVLTVLHQDWLNGKEYKCKVSNKALPAPIEKTISKAKGQPREPRVYTLPPCRDELTKNQVSLTCLVKGFYPSDIAVEWESNGQPENNYKTTPPVLVSDGSFTLYSKLTVDKSRWQQGNVFSCSVMHEALHNHYTQKSLSLSPGSGSGGGGSDIQMTQSPSSVSASVGDRVTITCRASQGISSWLAWYQQKPGKAPKLLIYAASSLQSGVPSRFSGSGSGTDFTLTISSLQPEDFATYYCQQGVSFPRTFGCGTKVEIKGGGGSGGGGSGGGGSGGGGSEVQLVESGGGLVKPGGSLRLSCAASGFTFSSYSMNWVRQAPGKCLEWVSSISSSSSYIYYADSVKGRFTISRDNAKNSLYLQMNSLRAEDTAVYYCARGAPMGAAAGWFDPWGQGTLVTVSS
heavy 2: EVQLLEQSGAELVRPGTSVKISCKASGYAFTNYWLGWVKQRPGHGLEWIGDIFPGSGNIHYNEKFKGKATLTADKSSSTAYMQLSSLTFEDSAVYFCARLRNWDEPMDYWGQGTTVTVSSASTKGPSVFPLAPSSKSTSGGTAALGCLVKDYFPEPVTVSWNSGALTSGVHTFPAVLQSSGLYSLSSVVTVPSSSLGTQTYICNVNHKPSNTKVDKKVEPKSCDKTHTCPPCPAPELLGGPSVFLFPPKPKDTLMISRTPEVTCVVVDVSHEDPEVKFNWYVDGVEVHNAKTKPREEQYNSTYRVVSVLTVLHQDWLNGKEYKCKVSNKALPAPIEKTISKAKGQPREPQVCTLPPSRDELTENQVSLTCLVKGFYPSDIAVEWESNGQPENNYKTTPPVLDSDGSFFLYSWLTVDKSRWQQGNVFSCSVMHEALHNHYTQKSLSLSPG
light: ELVMTQSPSSLTVTAGEKVTMSCKSSQSLLNSGNQKNYLTWYQQKPGQPPKLLIYWASTRESGVPDRFTGSGSGTDFTLTISSVQAEDLAVYYCQNDYSYPLTFGAGTKLEIKGRTVAAPSVFIFPPSDEQLKSGTASVVCLLNNFYPREAKVQWKVDNALQSGNSQESVTEQDSKDSTYSLSSTLTLSKADYEKHKVYACEVTHQGLSSPVTKSFNRGEC
notes: also called EPCAM-targeting F4-TriNKET
